In patent US20260258121A1, “USES OF POMC-SPECIFIC ANTIBODY AND MARCHF6” (KOREA UNIVERSITY RESEARCH AND BUSINESS FOUNDATION, priority 2023, published 2026):
Substitutions are numbered along the chain they refer to. Names may count otherwise. Where a SMILES comes first, the peptide text is derived from it. The star is where a group is joined. Cbz = O=C(OCc1ccccc1)*; CH2F = FC*

Tests used:
[1] = tested on: Gpx4; experiment: Immunoblotting of Gpx4 in POMCha^Δ1-26-expressing N43/5 cells treated with degradation inhibitors; assay type: cell-based, mouse; conditions: 8 hours
Experimental: To determine whether full-length POMCha or cytosolic POMCha^[…] regulated the expression of Gpx4 protein, which was known to be degraded by ferroptosis induction, the mRNA level of Gpx4 was analyzed by qRT-PCR in […]/5 cells overexpressing full-length POMCha or cytosolic POMCha^[…], and subjected to CHX-chase assay. In addition, since Gpx4 degradation occurred through chaperone-mediated autophagy (CMA), macroautophagy, or the Ub-proteasome system, […]/5 cells overexpressing POMCha^[…] were treated with a lysosomal inhibitor such as chloroquine (CQ) or BafA1 (bafilomycin A1), a proteasome inhibitor MG132, or a macroautophagy inhibitor 3-MA (3-methyladenine), and the expression of Gpx4 protein was analyzed by immunoblotting. In addition, the expression of lysosome-associated protein 2A (Lamp2a), heat shock chaperones Hsc70 and Hsp90 was confirmed by immunoblotting in […]/5 cells overexpressing POMCha^[…], and changes in Gpx4 were analyzed by treatment with Lamp2a-specific siRNA (SCBT, sc-35791).

[2] = tested on: POMCha-overexpressing Marchf6-KO N43/5 cells; experiment: Cell viability (CellTiter-Glo) of POMCha-overexpressing Marchf6-KO N43/5 cells; assay type: cell-based, mouse; conditions: for reduced viability of POMCha-overexpressing Marchf6-deficient N43/5 cells, effect of ectopic expression: ectopic expression by transfection
Experimental: To understand the functional or mechanistic association between Marchf6-mediated POMC degradation and ferroptosis, lipid ROS levels were compared in N43/5 cells overexpressing POMCha using a lipid peroxidation sensor C11-BODIPY^581/591. Specifically, WT or Marchf6-KO N43/5 cells were transfected with pCH4129 (POMCha) for 48 hours, and the medium was replaced with a culture medium containing 2 μM C11-BODIPY^581/591 (Thermo Fisher Scientific, D3861). The cells were incubated at 37° C. for 30 minutes, and the fluorescent probe-treated cells were trypsinized, transferred to a 15 ml Falcon tube, washed three times with 1 ml of ice-cold PBS, and then transferred to an ice-cold round-bottom polystyrene tube (Corning, 352235). The amount of intracellular lipid ROS in […] was measured using CytoFLEX LX (Beckman Coulter) using fluorescein isothiocyanate (FITC) and analyzed using FlowJo v10.8.1 (BD Bioscience). In addition, cell viability was analyzed using a CellTiter-Glo luminescent 3D cell viability assay kit (Promega, G9241) and a multimode plate reader (TECAN, Spark 10 M). At this time, when the inhibition of cell death was evaluated, WT or Marchf6-KO N43/5 cells expressing pCH60 (empty vector) or pCH4129 (POMCha) (final concentration of […] each) were treated with 5 μM Fer-1, 20 μM Z-VAD-FMK or 40 μM Nec-1, and incubated for 24 hours, and cell viability was analyzed. In addition, the intracellular NADP(H) level was measured using a NADP/NADPH-Glo assay kit (Promega, G9081) and a multimode plate reader (TECAN, Spark 10 M). Further, LDH activity was measured using the Cytotoxicity Detection Kit Plus (LDH) (Sigma, 4744926001).
Through Examples, since Marchf6 mediated the degradation of POMC, it was expected that loss of Marchf6 would make POMC neurons hypersensitive to POMC-induced ferroptosis. Therefore, pCH60 (empty vector), pCH879 (Marchf63f), pCH880 (Marchf6flag^C9A), or pCH4170 (Marchf6flag^P460A) was transfected into WT or Marchf6-KO N43/5 cells, and the degree of ferroptosis induction in POMC neurons was analyzed as in Example 6-1.

[3] = tested on: Gpx4, CHOP, Nox2, and Nox4; experiment: Immunoblotting of Gpx4, CHOP, Nox2 and Nox4 in POMCha-overexpressing Marchf6-KO N43/5 cells; assay type: cell-based, mouse
[4] = molecular target: T1, POMC (Homo sapiens, UniProt P01189); experiment: Chemical crosslinking-based reciprocal co-immunoprecipitation assay in HEK293T cells; assay type: binding; conditions: DSP crosslinking
T1 construct: expressed in transfected cells; host or cells: HEK293T
T1 sequence (P01189 1-267): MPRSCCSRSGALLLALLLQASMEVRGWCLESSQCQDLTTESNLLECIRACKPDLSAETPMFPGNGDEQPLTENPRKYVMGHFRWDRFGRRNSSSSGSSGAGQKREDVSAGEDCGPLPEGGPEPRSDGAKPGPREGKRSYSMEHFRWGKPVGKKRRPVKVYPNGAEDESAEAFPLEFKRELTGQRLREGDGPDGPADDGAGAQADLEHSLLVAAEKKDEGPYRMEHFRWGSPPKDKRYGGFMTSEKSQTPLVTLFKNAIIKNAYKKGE
Experimental: For the chemical crosslinking-based reciprocal co-immunoprecipitation assay, HEK293T cells were incubated at […] in a 10-cm dish plate and co-transfected with […] of pCH60 (empty vector) or pCH4129 (exogenous C-terminally hemagglutinin (ha)-tagged POMC: POMCha) and pCH879 (wild-type C-terminal triple flag-tagged Marchf6: Marchf63f) or pCH4170 (Marchf6^P460A) and incubated for 48 hours. The cells were washed with PBS, treated with 1 mM DSP [dithiobis(succinimidyl propionate)] (Thermo Fisher, 22585), and then the crosslinked cells were lysed and immunoprecipitated. The beads were washed three times with an IP-wash buffer (20 mM Tris-HCl, 137 mM NaCl, 0.1% NP-40, 2 mM EDTA, 10% glycerol) and bound proteins were eluted with a 2× SDS sample buffer. For immunoprecipitation with FLAG-agarose (Sigma-Aldrich, A2220), a 3× FLAG peptide (Protein Ark, GEN-3XFLAG-5) was used. Thereafter, the eluate was denatured and heated at 37° C. for 20 minutes, and SDS-PAGE and immunoblotting were performed using the corresponding antibody.

Molecule: CO/C1=C\C(C)=C\[C@@H](C)[C@@H](O)[C@@H](C)C/C(C)=C/C=C/[C@H](OC)[C@@H]([C@@H](C)[C@@H](O)[C@H](C)[C@@]2(O)C[C@@H](O)[C@H](C)[C@@H](C(C)C)O2)OC1=O [BafA1, bafilomycin A1]
- Gpx4 downregulation in POMCha^Δ1-26-expressing N43/5 cells, effect of treatment ([1]; BafA1 100 nM): restored

Molecule: CCN(CC)CCCC(C)Nc1ccnc2cc(Cl)ccc12 (stereo not drawn) [CQ, chloroquine]
- Gpx4 downregulation in POMCha^Δ1-26-expressing N43/5 cells, effect of treatment ([1]; CQ 50 μM): restored

Molecule: CN1C(=O)C(Cc2c[nH]c3ccccc23)NC1=S (stereo not drawn) [Nec-1, necrostatin-1, reference compound]
- decreased viability of POMCha-overexpressing Marchf6-KO N43/5 cells, effect of treatment ([2]; 40 μM Nec-1, 24 hours): not restored

Molecule: COC(=O)C[C@H](NC(=O)[C@H](C)NC(=O)[C@@H](NC(=O)OCc1ccccc1)C(C)C)C(=O)CF [Z-VAD, Z-VAD-FMK, reference compound] (Cbz-Val-Ala-Asp(OMe)-CH2F)
- decreased viability of POMCha-overexpressing Marchf6-KO N43/5 cells, effect of treatment ([2]; 20 μM Z-VAD-FMK, 24 hours): not restored

B1: Marchf63f^P460A: POMC-inaccessible Marchf6 mutant with Pro460-to-Ala mutation in the POMC-interacting region (pCH4170) (protein, UniProt Q6ZQ89 1-909, looked up, variant P460A)
E3 ubiquitin-protein ligase …: MDTAEEDICRVCRSEGTPEKPLYHPCVCTGSIKFIHQECLVQWLKHSRKEYCELCKHRFAFTPIYSPDMPSRLPIQDIFAGLVTSIGTAIRYWFHYTLVAFAWLGVVPLTACRIYKCLFTGSVSSLLTLPLDMLSTENLLADCLQGCFVVTCTLCAFISLVWLREQIVHGGAPIWLEHAAPPFNAAGHHQNEAPVGGNGAENPAADQPANPAGENAVLGENPDAQDGQAEEEEEDNEEEDDAGVEDAADANNGAQDDMNWNALEWDRAAEELTWERMLGLDGSLVFLEHVFWVVSLNTLFILVFAFCPYHIGHFSLVGLGFEEHVQASHFEGLITTIVGYILLAITLIICHALATLVKFHRSRRLLGVCYIVVKVSLLVVVEIGVFPLICGWWLDICSLEMFDATLKDRELSFQSAPGTTMFLHWLVGMVYVFYFASFILLLREVLRPGVLWFLRNLNDADFNPVQEMIHLPIYRHLRRFILSVIVFGSIVLLMLWLPIRIIKSLLPNFLPYNVMLYSDAPVSELSLELLLLQVVLPALLEQGHTRQWLKGLVRAWTVTAGYLLDLHSYLLGDQEENENSANQQVNNNQPARNNNAVPAGEGLHAAHQAILQQGGPVGFQPYRRPLNFPLRIFLLIVFMCITLLIASLICLTLPVFAGRWLMSFWTGTAKIHELYTAACGLYVCWLTIRAVTVLVAWMPQGRRVIFQKVKEWSLMIMKTLIVAVLLAGVVPLLLGLLFELVIVAPLRVPLDQTPLFYPWQDWALGVLHAKIIAAITLMGPQWWLKTVIEQVYANGIRNIDLHYIIRKLAAPVISVLLLSLCVPYVIASGAVPLLGVTAEMQNLVHRRIYPFLLMVVVLMGILSFQVRQFKRLYEHIKNDKYLVGQRLVNYERKSGKQGPSTPPPVSSQE
modifications: C-terminal triple FLAG tag
- reduced viability of POMCha-overexpressing Marchf6-deficient N43/5 cells, effect of ectopic expression [2]: not restored
- expression levels of Gpx4, CHOP, Nox2, and Nox4 proteins, effect of expression of construct [3]: not restored
- binding of full-length POMC (co-immunoprecipitation) [4]: did not bind

B2: Marchf63f^C9A: catalytically inactive Marchf6 mutant (pCH880) (protein, UniProt Q6ZQ89 1-909, looked up, variant C9A)
E3 ubiquitin-protein ligase …: B1 E3 ubiquitin-protein ligase … with C9A, A460P
modifications: C-terminal triple FLAG tag
- reduced viability of POMCha-overexpressing Marchf6-deficient N43/5 cells, effect of ectopic expression [2]: not restored
- expression levels of Gpx4, CHOP, Nox2, and Nox4 proteins, effect of expression of construct [3]: not restored
